In the domain aggregation screens of Martell et al. (2025):

Assay: soluble fraction after stress (log2 fold change); higher = more stays soluble; pooled small domains, quantitative proteomics
Conditions: stress: 50 degC
Outline: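 Each library was heated to 50°C as a stress step. The libraries, made up of small protein domains, were pooled and analysed at high throughput by quantitative proteomics. The reported value is the base-two logarithm of the fold change in each protein's soluble amount after stress, taken as a measure of aggregation propensity. The higher the value, the more protein stays in solution.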

HMSILDEAEFKKIESALLDFITNNIFTVKELLQASRGIKQDKFWKVFQFLQSERKVVVNELGYIEL
soluble fraction (log2): -0.205

HMTKEAIAQKLRIARQESGLTQKDVSAKIGRPQQTIASWEVGRSQPDADTLYSLLLLYKVSPNTFFEYD
soluble fraction (log2): -0.352

HMVESLTDRELQILSLAAKGYTNKAIAVQLGISDRTVQNHLANTFQKLNAESRTEAVMRAVSLGLISA
soluble fraction (log2): -0.213

HMVNGTPADPYDVLGVESSASPEELRAAWQTLVRQNHPDQLMARGVPLEAVKLAEARLVAINQAWDDLTK
soluble fraction (log2): 0.0363

HMSFTDLILKSANAIDEMGGIWENGKQILGEKAIAIHEEIVDNGLNPDKDGFYKLANGQMIQYG
soluble fraction (log2): -0.000487

HMDTVSYMSDAVKAGAVTPSHDEEARARYLLYAGFGAILLFLRYEASEPGDIESAIREFMERYGPVTAELY
soluble fraction (log2): 0.243

HMDNNNQAAFMGALNSLKEYAKVNGNIVTKQDVESYFKDLGLDDSKYQMITGYLLANDITVKG
soluble fraction (log2): 0.0282

HMERGEFQKLGRATLEQTLARAGKTLAEVSLKAMLETFAFAAEEDLYEALGRGRVSAAKVGETLFPALKGR
soluble fraction (log2): -0.0985

HMKDESQLVGAEGKAVTPLRPTGVALIGEKRLDVLTEGEFIPRNSDIIVSRVEGNKIIVKLKN
soluble fraction (log2): 0.177

HMARTIINLPLRNSVDESYNTTVNILQANGFKEVSYNGETVWKKGTGLLTAMQYIKIEFTDTTLVVSGWVQ
soluble fraction (log2): ≥ 0.62

HMGIKAADIVTNDIQFNTQAQFDKYKDLYPTLGWGNYDPNKTYTMQGFKNKLKPNELFTGTPNLKIEDT
soluble fraction (log2): 0.141

HMHGSTAVVPQIKNMPYSEASVRLGANGLAIEINDSVYDRDMPPGTVIESWPKAGAVVKQGRQVYVTVTA
soluble fraction (log2): -0.221

HMLIDSNNYFFYKVKPKEGFYSLQKKLGVNRSEIEKHNPSLINEVLKEGMILKIPKYLLNFDLN
soluble fraction (log2): -0.297

HMSSVTGMERFLSSGAVKGIGKTMAARIVEHFGTETMTVLESFPERLAEVPGIGAKKAEAIGQSYSEISD
soluble fraction (log2): 0.174

HMLSVNREQVEQSLKQEWGFDYDKNLRAAQRAIDVYGDDDLKLLLNGPTGNDPAIVKLFARLGGEVTEE
soluble fraction (log2): -0.00909

HMSIMNLSEKIVVLRKSNGMSQEELAEKLYVSRQAVSRWEMGTAVPDSTNILQLGKLFHVTTDYLLNDEYE
soluble fraction (log2): -3.19

HMADVLLKHGSSGDYVWDLQYRLKTLSLFDQEMTGYFGPHTRQAVVNFQRKYGLPADGVVGPATWRALRK
soluble fraction (log2): -2.27

HMQIIGEQNQKDFIALFGAILRMRNLLLSFDEFKGNELISERDLQDYLGRYQDLRDEWRNKRRER
soluble fraction (log2): 0.0518

HMGEESIAELISNPKLSDAKRTVILDLLSRGLTVDQIKPYIQSDDPYTAEQLQFELYKLFFTQI
soluble fraction (log2): -0.228

HMDAKSRFQEWVQAETGITPTYRIIGDSGPDHAKTFIAQVLLGERVVGEGVGSSKRAAEQAAAQAALAAM
soluble fraction (log2): 0.186

HMDNLSQMQERILEFIIRSKDQSGYTPSLREIGDEVGLKAVSSVKYQLEQLKDAHYISFDANTARAIRVLI
soluble fraction (log2): -1.7

HMQTKEVDYGTFMSMIDEKNIGTVEIGDSQIVFTDKDNKNLYETGVMNDPDLAQRLHDAGATFSS
soluble fraction (log2): 0.201

HMIEDMQQWIRQIREIVSNRLDLTRNISDDEIREVISDIVMEQSRQQYMSLNEKKTLMEGVFNSMR
soluble fraction (log2): -0.157

HMAPELRSDAQMRRLWALAKENGLDEVGFRAFISDATGREVESTKSLTATEAHRLIEELEAP
soluble fraction (log2): -0.388

HMKRDNETRRRIVAAAEELFRAKGLDGVNMRELAEMAGVNKGLLHYYFKTKQALFREILVGQMAL
soluble fraction (log2): -1.05

HMPTEPTARELEVTTLLAQGLSNREIAGALFISEHTVRNHLGHVFSKLGVSSRTQAVVRAGQLGWLR
soluble fraction (log2): -2.14

HMKFPPELVEFIEGLSLLKPPLNYATVHRRAEKLAIKKGWASPSYSTVRNIIRKLSPALTTLAHEG
soluble fraction (log2): -2.15

HMNELGSLIKRKREELGLSQEELARILGYKHKSSINKIELGLADVPRTKVPAFAKALGMTPVEFS
soluble fraction (log2): 0.0771

HMITQQEFQQKLEALLSRAEAESFHIKKEEAESFFSGDELTGEQMKLVFDYLLSKKIIVEGYLK
soluble fraction (log2): -0.0863

HMTITIGNSDGGYMKMGADGFEVRFSGSDGGNHYAKMYYNNDGWARLTLGSYGEEKARIDSDGMIQTR
soluble fraction (log2): -0.113

HMNTLGTNIAKLRESQKLTQEELGKLSGVSRVSIYKIETGQSTPRDTTLQNIAEALHTTPSALRS
soluble fraction (log2): 0.142

HMSSVEQAILETLSKEHSHLTSLQVFEEIRGRLPAVNQSTVYRALERLVEQGVVSVSDMGTHAAVYE
soluble fraction (log2): -0.177

HMKPPVQVIGKAVVTASSLNVRTGPGTGHGIITSLPRNTEVELLEQQGEWYKIRRGSTVGYVHGGYLKIN
soluble fraction (log2): -0.00404

HMLNPVEKLLLLSQLYIGRLKGSFVVKEKHHKSTILGEVRELSPEEITLKTDEGYRLIRVDDILTIQL
soluble fraction (log2): -2.18

HMAEKGIGRVNADWLNMRTSPGGEVLTVLKQGTELQVIGRSGSWLEVQHGNEQGYVSSRYITIQP
soluble fraction (log2): -0.17

HMDSFEEGTYRKNQRGFGFVKIENQEDEIFISKENSLNALNGDRVIVEIIEDKDRTKRAEGKIKKILKHE
soluble fraction (log2): 0.201

HMGIDSSVYVEARYELGHLYLKQKKYAAAYASFKEILDMYASTTPGVLPGAYNKLAEIGMKRIPKNKL
soluble fraction (log2): -2.74

HMARSKSRQSSVLESVPGLGPSRRRNLLRHFGGLQGVVKAGVEDLMAVRGISRTLAETVYDHLHPGS
soluble fraction (log2): -0.289

HMSRLGINTTIEDIKMVGKIIMPLLKQGQSVYQILASHPEIPYSEKTLYSYIEDNIFKDAGIDISVFDL
soluble fraction (log2): -0.931

HMGGALSPDFGWLAMIDPDEGRAITLYDIASGEAIAVLDTHEARVAALAWSPDGTRLASGDQNGLIVQWEI
soluble fraction (log2): -0.432

HMIKEVEYSQFLQMTDQGEVGKVEINEQENSILFTDKAEKNIYKTGMVEDAELSMRLYEAGIPFSGQI
soluble fraction (log2): -0.0245

HMSKLIDQELINFFKNQIESKSFRYGVSIEDSYEEIKSNQIKFYGEQEDKLKAIDNAFIELKRERAGIR
soluble fraction (log2): -0.00405

HMSGAERAAALLVALGPEVASEIMKFLDDESIQKLASEIAKIEVLSPQEKEDLIGQFLLELKKT
soluble fraction (log2): -0.214

HMSINQIADKGYITRLIDNNANIKDVLYYDASSRILAIEDPKYMFYLKNTDWNQFAKEMGFKLE
soluble fraction (log2): -0.657

HMEEFAGYINGQPYYGPTHQHRGVKMVGAEHTQRPHPLVWDSVAKSLDNYDNRFQWVNGNLLQVV
soluble fraction (log2): 0.0306

HMPRQREVPDVSGWTEQHAKVYLEALGYRVKVIYLEVSSFDKGLVQETSPAKGSKVEEGDTIDLRVSNQE
soluble fraction (log2): -0.367

HMARGTRTRAKLLAAAEVVFARYGYTEASIERITEEAGVGQGTFYLYFASKLEIFEELVDDLNR
soluble fraction (log2): -2.87

HMIDLGKSRTWHSENGRAIEARVINISEEQQTVEMQRVDGLKFELSWNQLSKADQTLLAEAAKKTALVA
soluble fraction (log2): 0.0711

HMREELIALYRAIARLSEDEQELLNLFYFARRPLSEIAQLTGMTPGAAKTRLYRARRHLRREMEEDGYG
soluble fraction (log2): -0.986

HMDTNRIIGNKIYQLRRSINMTQQELAEKVGISVTFLSEIENGRKSMSVDTLIKLSKGLQVSLDTIVF
soluble fraction (log2): -1.46

HMTLTIEDQLRRLRARLGRGRAFLFSDVLVNPHDRTEIAVTLLALLELIKRREAQASQSYLFGPIEVAAA
soluble fraction (log2): -1.94

HMQRYVVDENLKLDKKDINHIINVMRLNVNDQIKLINNGTIYDAIITKIEKNNVLYEIIKKEESK
soluble fraction (log2): 0.0274

HMNLLPAGTYKLKDLVTAEDEEIGAKKGDVVIAHEDTPPSDRVLGVDIFPVIHKNTSKKIYVSLEDI
soluble fraction (log2): 0.46

HMTFAEADAQYEVIKQQYLAGALDEEQFDEQLHRLMVLDDGGLWWAKSRENGSWHYYDPDREDWIAATP
soluble fraction (log2): -0.355

HMVGLTDLQRNVLVQIARGKSRQLISRTLKVTPAEISAALKVAQRRYRVASSTEVIVQALYDKTLSFHEIM
soluble fraction (log2): -0.625

HMGRQTITLPDFSGQDLEQVKARLTEWGLVPEEKSVFSDSVPLGSVVRTVPAEGDEVSVGDTVTVYKSLGR
soluble fraction (log2): 0.0656

HMGGSLADAKRFLADLLADGPVPAKGVRADADGAGHTWPTIRRAQKALGIEATKTGMKGGWVWALPR
soluble fraction (log2): -0.034

HMKFGETLIDLRKRNGLTQEELAAKLYVTRQAVSRWERGEVTPGIDMLKLIANVLNEPVAHLLDW
soluble fraction (log2): -0.977

HMEIGLIRVDSRLIHGQVITKWLNYSKANVIVVVDDELSKDSFMSEIYKASAPNGIIVEILSIDDFMKNT
soluble fraction (log2): 0.00544

HMKTGTVQDFIAKYGMSSKSPSSWFNSLTQIQKAEAKALKAQSGLTWNEWYEKNIYNGDGSNL
soluble fraction (log2): 0.0263

HMSAPRRGETTAASLNLRAGPATDADILAQLPERTPLRVLQEDGEWLRVETHGNEGFVHRQFVAIPGDEP
soluble fraction (log2): 0.218

HMSEILQLINKIDKKLEKGYTFANISRNHYEKIYKEEILNLYKTSKLKGEAEDSIKEVLESLLGDLRKP
soluble fraction (log2): 0.0222

HMIHIGAQEALGEFQDEEGNLTASKKEVVAALVKKSKEVSFPTSYEYEVAARMAADEYNDAGQRMA
soluble fraction (log2): -0.0641

HMPIPIESEISRSPGQSIYAFVQQHYGRSGRSPADMRALVGLILRLNRQIRTPLLIPFGLVVVRPT
soluble fraction (log2): -0.0619

HMRGGLATLTPRERQVLALMAEGRSNAGIAAELVVSGGAVEKHVASIFTKLGLPPDESDNRRVLAVLRHLG
soluble fraction (log2): -0.661

HMRVVGRNHYDDADLAHIRSVIQLEARPLNVSRIARTLANEYPKHTYWSYLSFLQKNLRDRPDLF
soluble fraction (log2): -1.83

HMLQNLGFKPDLEIRHFPGIVLPDIHRSKKTISLLYTLLAGDIKKLPENEINYKDSKIISSYLWTLLRYH
soluble fraction (log2): 0.0237

HMLGARIAALRRQAGMNQGELAKKLGISPSTVGMYEQGRREPSAEMLVRLAEAFSVSTDFLLT
soluble fraction (log2): -4.95e-05
